Results as given in article PMC4601532 (Science (New York, N.Y.), 2015).

B1: Vps38, subunit of complex II (natural protein)
chain: MKRFLLSRRQRHLRMICFHNISLFRANGDSKLIKEYGDGFIPCFFILESIRGELLYVSEVQSGSLRKLSFQELPKLTGASTMIVLKLVGLVPSDILCTISSDKNGIIDDKWCVLCTYTIDLNKLQPINEDTVLITGTNAPVLDLIDGSYTLAAEKIKPLKGLVSSHKRNISQVKIKFSLAYSSLLKLNKLLEYSSQVHEEINEISSKIEDDFLSLKNQNHWYMRTVQKSIETLEKEVLQRKKSKKNIEMAQLESNDTINHSKTELSLMSQDESINDDYGSIYSRFVQIKDRLDQLRFKKLYQLIGIFHSTDLFNSDRGYIYFEKPSSVNDVINRLKLKPLNIEILLRQAGESTKHREYVNSQLGYYLLFLHLTAIQIFKAPLPYRLMYYGSTSVIDSQYPLYFTDQMISKHQAKLIKAIHYFNADILQFKQILENYRPT
B2: Vps30/ZZ-Vps38 heterodimer held on IgG beads (complex)
chain 1: MKCQTCHLPLQLDPSLEGLSLTQRNLLLSNNSIITATNENVISNKGIEAADNCGPQIPKERLRRLGEIQNIKDLNLKDDKLITDSFVFLNHDDDDNANITSNSREDQRYGNANGNDNKKANSDTSDGTSTFRDHDEEEQEATDEDENQQIQLNSKTLSTQVNAMTNVFNILSSQTNIDFPICQDCCNILINRLKSEYDDAIKERDTYAQFLSKLESQNKEISESNKEKQYSHNLSEKENLKKEEERLLDQLLRLEMTDDDLDGELVRLQEKKVQLENEKLQKLSDQNLMDLNNIQFNKNLQSLKLQYELSLNQLDKLRKINIFNATFKISHSGPFATINGLRLGSIPESVVPWKEINAALGQLILLLATINKNLKINLVDYELQPMGSFSKIKKRMVNSVEYNNSTTNAPGDWLILPVYYDENFNLGRIFRKETKFDKSLETTLEIISEITRQLSTIASSYSSQTLTTSQDESSMNNANDVENSTSILELPYIMNKDKINGLSVKLHGSSPNLEWTTAMKFLLTNVKWLLAFSSNLLSKSITLSPTVNYNDKTISGN
chain 2: B1 chain
B3: Vps34 (vacuolar protein sorting 34), subunit of complex II (enzyme)
chain: LNNITFCVSQDLDVPLKVKIKSLEGHKPLLKPSQKILNPELMLIGSNVFPSSDLIVSLQVFDKERNRNLTLPIYTPYIPFRNSRTWDYWLTLPIRIKQLTFSSHLRIILWEYNGSKQIPFFNLETSIFNLKDCTLKRGFESLKFRYDVIDHCEVVTDNKDQENLNKYFQGEFTRLPWLDEITISKLRKQRENRTWPQGTFVLNLEFPMLELPVVFIEREIMNTQMNIPTLKNNPGLSTDLREPNRNDPQIKISLGDKYHSTLKFYDPDQPNNDPIEEKYRRLERASKNANLDKQVKPDIKKRDYLNKIINYPPGTKLTAHEKGSIWKYRYYLMNNKKALTKLLQSTNLREESERVEVLELMDSWAEIDIDDALELLGSTFKNLSVRSYAVNRLKKASDKELELYLLQLVEAVCFENLSTFSDKSNSEFTIVDAVSSQKLSGDSMLLSTSHANQKLLKSISSESETSGTESLPIVISPLAEFLIRRALVNPRLGSFFYWYLKSESEDKPYLDQILSSFWSRLDKKSRNILNDQVRLINVLRECCETIKRLKDTTAKKMELLVHLLETKVRPLVKVRPIALPLDPDVLICDVCPETSKVFKSSLSPLKITFKTTLNQPYHLMFKVGDDLRQDQLVVQIISLMNELLKNENVDLKLTPYKILATGPQEGAIEFIPNDTLASILSKYHGILGYLKLHYPDENATLGVQGWVLDNFVKSCAGYCVITYILGVGDRHLDNLLVTPDGHFFHADFGYILGQDPKPFPPLMKLPPQIIEAFGGAESSNYDKFRSYCFVAYSILRRNAGLILNLFELMKTSNIPDIRIDPNGAILRVRERFNLNMSEEDATVHFQNLINDSVNALLPIVIDHLHNLAQYWRT
B4: Vps30/Atg6, subunit of complex II (natural protein)
chain: B2 chain 1

Experiments:
[1] = target: Vps38-C2 with CC1 region (Saccharomyces cerevisiae); assay: SEC-MALS
[2] = target: T1, Vps15, subunit of complex II (Saccharomyces cerevisiae, UniProt P22219 1-1454); assay: SEC-MALS
T1 sequence: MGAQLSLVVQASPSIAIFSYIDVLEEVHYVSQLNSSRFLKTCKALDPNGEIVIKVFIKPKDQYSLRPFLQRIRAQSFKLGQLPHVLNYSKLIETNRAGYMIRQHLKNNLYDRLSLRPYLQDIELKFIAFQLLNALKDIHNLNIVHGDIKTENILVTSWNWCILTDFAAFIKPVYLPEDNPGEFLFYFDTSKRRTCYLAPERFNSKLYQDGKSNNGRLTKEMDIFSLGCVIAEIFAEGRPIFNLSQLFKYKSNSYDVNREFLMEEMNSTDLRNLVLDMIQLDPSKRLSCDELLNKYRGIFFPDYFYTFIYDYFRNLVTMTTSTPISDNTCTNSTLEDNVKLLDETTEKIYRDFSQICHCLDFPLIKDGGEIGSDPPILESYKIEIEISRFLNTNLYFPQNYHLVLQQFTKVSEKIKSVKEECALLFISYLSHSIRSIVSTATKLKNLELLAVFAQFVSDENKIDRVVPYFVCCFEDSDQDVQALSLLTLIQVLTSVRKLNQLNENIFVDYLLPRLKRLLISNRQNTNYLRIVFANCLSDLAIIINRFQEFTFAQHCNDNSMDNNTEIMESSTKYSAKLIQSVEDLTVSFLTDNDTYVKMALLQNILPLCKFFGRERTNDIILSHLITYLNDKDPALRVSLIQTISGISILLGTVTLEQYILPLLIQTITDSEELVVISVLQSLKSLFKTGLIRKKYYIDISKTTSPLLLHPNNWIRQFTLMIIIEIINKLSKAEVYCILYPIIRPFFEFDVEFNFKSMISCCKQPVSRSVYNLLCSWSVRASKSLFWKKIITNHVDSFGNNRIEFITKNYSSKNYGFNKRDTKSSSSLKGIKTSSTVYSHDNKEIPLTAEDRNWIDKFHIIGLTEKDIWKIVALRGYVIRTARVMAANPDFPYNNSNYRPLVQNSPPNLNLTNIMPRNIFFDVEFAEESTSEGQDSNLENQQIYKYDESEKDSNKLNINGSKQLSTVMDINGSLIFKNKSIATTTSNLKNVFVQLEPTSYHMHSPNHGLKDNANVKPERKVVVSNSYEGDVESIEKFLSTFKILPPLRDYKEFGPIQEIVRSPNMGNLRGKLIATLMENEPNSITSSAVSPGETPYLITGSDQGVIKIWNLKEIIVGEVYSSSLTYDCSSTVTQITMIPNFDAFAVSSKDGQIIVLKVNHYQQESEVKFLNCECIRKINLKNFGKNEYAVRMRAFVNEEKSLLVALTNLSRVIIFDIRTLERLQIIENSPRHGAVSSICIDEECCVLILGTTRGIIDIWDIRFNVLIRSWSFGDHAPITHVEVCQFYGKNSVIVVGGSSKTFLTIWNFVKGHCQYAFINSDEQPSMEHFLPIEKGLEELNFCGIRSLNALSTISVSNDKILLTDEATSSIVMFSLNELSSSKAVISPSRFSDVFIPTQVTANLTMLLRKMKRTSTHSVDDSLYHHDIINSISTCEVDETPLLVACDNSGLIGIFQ

[3] = target: B3; assay: crystal structure
[4] = target: B4; assay: crystal structure
[5] = target: Saccharomyces cerevisiae Vps15/Vps34 heterodimer (Saccharomyces cerevisiae, UniProt P22219;P22543); assay: pull-down
[6] = target: B4; assay: SEC-MALS
[7] = target: B1; assay: SEC-MALS

stoichiometry N [2] | binding result [3] | stoichiometry N [7] | Molecule | further results
 |  |  | Vps30-NTD with CC1 region (domain or fragment) | stoichiometry N [1]: 1
1 | binds |  | B1 | binding result [4]: binds
 |  |  | B2 | binding result [5]: binds
1 |  | 1 | B3 | stoichiometry N [6]: 1
1 | binds | 1 | B4 | 
